Legend:
[1] = molecular target: T1, Human STEAP1 (human, UniProt Q9UHE8 1-339); assay: flow cytometry on TC32 cells after repeated washes in PBS with 2 mM EDTA
T1 construct: Endogenous on Ewing's sarcoma cell lines (TC32 and others) and prostate cancer cell lines; as STP1h transfected into HEK293 cells with a lentiviral vector (GFP part of the transgene); also called STP1h
Protocol: Following binding of the primary antibody, cells were washed in PBS with 2 mM EDTA from 1 to 10 times. After each wash cells were stained with the secondary PE-conjugated goat anti-human IgG antibody and washed once with PBS for flow cytometry. Mean fluorescence intensity (MFI) was normalized to time 1 and depicted in FIG. 4B. While chimeric antibody dropped to below 50% after first wash, clones L1+H1, L1+H2, L1+H5 and L2+H2 remained above 50% through wash #8 and therefore scored as slow koff.
After initial staining (FIG. 4A), ten different clones, including the chimeric BsAb clone, were chosen for further study. To assess binding of these ten clones to TC32 cells, following incubation of the BsAbs, the cells were subjected to ten washes with PBS. An aliquot of the binding reaction after each wash was stained with a fluorochrome labelled anti-human secondary antibody. The extent of binding of the anti-STEAP1 BsAbs to TC32 cells was measured using flow cytometry.

[2] = molecular target: T1, Human STEAP1; assay: flow cytometry staining of TC32 cells with different doses

T1 sequence (Q9UHE8 whole entry): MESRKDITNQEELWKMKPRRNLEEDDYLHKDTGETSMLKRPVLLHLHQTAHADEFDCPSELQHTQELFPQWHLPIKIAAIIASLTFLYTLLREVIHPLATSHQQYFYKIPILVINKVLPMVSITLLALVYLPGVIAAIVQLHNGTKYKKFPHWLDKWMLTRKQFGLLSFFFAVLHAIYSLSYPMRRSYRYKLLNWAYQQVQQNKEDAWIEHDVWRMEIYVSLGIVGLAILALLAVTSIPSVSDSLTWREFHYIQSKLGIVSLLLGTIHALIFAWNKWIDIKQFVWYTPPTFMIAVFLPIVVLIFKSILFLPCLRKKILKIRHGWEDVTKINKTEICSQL

| Binder | Mean fluorescence intensity (MFI) normalized to time 1, through wash #8 [1] [%] | binding result [2] |
| --- | --- | --- |
| BC259 (VH-1+VL-1 BsAb variant) (bispecific antibody, V domains shown, One of the 24 humanized X120 versions; light chain extended by (G4S)3 linker and huOKT3 anti-CD3 scFv); also called L1+H1) VH: QVQVQESGPGLVKPSQTLSLTCTVTGYSITSDYAWNWIRQPPGKGLEWMGYISNSGSTSYNPSLKSRITISRDTSKNQFSLKLSSVTAADTAVYYCARERNYDYDDYYYAMDYWGQGTTLTVSA VL: not shown | > 50 |  |
| humanized X120 clone L4+H2 (bispecific antibody, IgG1, V domains shown, One of the 24 humanized X120 versions; light chain with (G4S)3 linker and huOKT3 scFv)) VH: DVQVQESGPGLVKPSQTLSLTCTVTGYSITSDYAWNWIRQPPGKGLEWMGYISNSGSTSYNPSLKSRITISRDTSKNQFSLKLSSVTAADTAVYYCARERNYDYDDYYYAMDYWGQGTTLTVSA VL: not shown |  | binds |

The next lines start with the values.

| Mean fluorescence intensity (MFI) normalized to time 1, through wash #8 [1] [%] | binding result [2] | Binder |
| --- | --- | --- |
|  | binds | humanized X120 clone L4+H1 (bispecific antibody, IgG1, V domains shown, One of the 24 humanized X120 versions; light chain with (G4S)3 linker and huOKT3 scFv)) VH: QVQVQESGPGLVKPSQTLSLTCTVTGYSITSDYAWNWIRQPPGKGLEWMGYISNSGSTSYNPSLKSRITISRDTSKNQFSLKLSSVTAADTAVYYCARERNYDYDDYYYAMDYWGQGTTLTVSA VL: not shown |
|  | binds | humanized X120 clone L2+H1 (bispecific antibody, IgG1, V domains shown, One of the 24 humanized X120 versions; light chain with (G4S)3 linker and huOKT3 scFv)) VH: QVQVQESGPGLVKPSQTLSLTCTVTGYSITSDYAWNWIRQPPGKGLEWMGYISNSGSTSYNPSLKSRITISRDTSKNQFSLKLSSVTAADTAVYYCARERNYDYDDYYYAMDYWGQGTTLTVSA VL: not shown |
| > 50 |  | BC260 (VH-2+VL-1 BsAb variant) (bispecific antibody, V domains shown, One of the 24 humanized X120 versions; light chain extended by (G4S)3 linker and huOKT3 anti-CD3 scFv); also called L1+H2) VH: DVQVQESGPGLVKPSQTLSLTCTVTGYSITSDYAWNWIRQPPGKGLEWMGYISNSGSTSYNPSLKSRITISRDTSKNQFSLKLSSVTAADTAVYYCARERNYDYDDYYYAMDYWGQGTTLTVSA VL: not shown |

Source: patent US20220348686A1 (Memorial Sloan Kettering, published 2022)
